We go through 13 molecules from paper PMC10897159, “Structural insights into the activation mechanism of antimicrobial GBP1” (The EMBO Journal, 2024).

Substitutions are numbered along the chain they refer to. Names may count otherwise.

In series [1] the target is GBP1 M139E, non-farnesylated (human) (UniProt P32455). The series is described as follows: SEC; analytical SEC (Superdex 200 5/150), 20 µM protein with 200 µM GDP, 300 µM AlCl3, 10 mM NaF (GDP•AlFx); 50 mM Tris-HCl pH 7.9, 150 mM NaCl, 5 mM MgCl2.
Series [2] deals with GBP1 Δ207-223, non-farnesylated (human) (UniProt P32455). The series is described as follows: cross-linking; BS3 at 20-times molar excess, 20 µM protein, with 200 µM GDP, 300 µM AlCl3, 10 mM NaF (GDP•AlFx); 50 mM HEPES, 150 mM NaCl, 5 mM MgCl2; SDS-PAGE.
Series [3] concerns the molecule itself. Put plainly: SEC; analytical SEC (Superdex 200 5/150), 20 µM protein with 200 µM GDP, 300 µM AlCl3, 10 mM NaF (GDP•AlFx); 50 mM Tris-HCl pH 7.9, 150 mM NaCl, 5 mM MgCl2. On the technique in general: Size exclusion chromatography separates by hydrodynamic size, large species first.
Series [4] deals with the molecule itself. The series is described as follows: light scattering-based polymerization assay; 10 µM farnesylated GBP1, polymerization started with 1 mM GTP (for the pivot point mutants also with LPS added); 50 mM Tris-HCl pH 7.9, 150 mM NaCl, 5 mM MgCl2; absorbance at 350 nm over 40 min; dimers to polymers.
Series [5] concerns the molecule itself. The series is described as follows: cross-linking; BS3 at 20-times molar excess, 20 µM protein, with 200 µM GDP, 300 µM AlCl3, 10 mM NaF (GDP•AlFx); 50 mM HEPES, 150 mM NaCl, 5 mM MgCl2; SDS-PAGE.
Series [6] concerns the molecule itself. The series is described as follows: specific GTPase activity against protein concentration (HPLC), quadratic fit; apparent Kd of dimer formation; non-farnesylated GBP1, 1 mM GTP, 37 °C, 50 mM Tris-HCl pH 7.9, 150 mM NaCl, 5 mM MgCl2; dimer to monomers.

“GBP1 M139E, non-farnesylated (from UniProt P32455 1-592) (natural protein)” came in with a stoichiometry N in series [1] of 2.

As to “GBP1 Δ207-223, non-farnesylated (from UniProt P32455 1-592) (natural protein)”, the stoichiometry N in series [2] stood at 2.

B1: isolated LG domain of GBP1 Δ207-213 (domain or fragment, human, UniProt P32455 1-317, looked up)
chain: MASEIHMTGPMCLIENTNGRLMANPEALKILSAITQPMVVVAIVGLYRTGKSYLMNKLAGKKKGFSLGSTVQSHTKGIWMWCVPHPKKPGHILVLLDTEGLGDVEKGDNQNDSWIFALAVLLSSTFVYNSIGTINQQAMDQLYYVTELTHRIRSKSSPDENENEVEDSADFVSFFPDFVWTLRDFSLDLEADGQPLTPDEYLTYSLGGGSGGGSQKDETFNLPRLCIRKFFPKKKCFVFDRPVHRRKLAQLEKLQDEELDPEFVQQVADFCSYIFSNSKTKTLSGGIQVNGPRLESLVLTYVNAISSGDLPCMENAVL
notes: LG domain of GBP1, human; stop codon in place of A318; also called α4’ variant LG domain construct; source: E. coli, pQE-80L, purified (Ni Sepharose HP, Superdex 200)
In the case of B1, the “stoichiometry N” value in series [3] was found to be 2.

B2: GBP1 D199A, farnesylated (natural protein, human, UniProt P32455 1-592, looked up)
chain: MASEIHMTGPMCLIENTNGRLMANPEALKILSAITQPMVVVAIVGLYRTGKSYLMNKLAGKKKGFSLGSTVQSHTKGIWMWCVPHPKKPGHILVLLDTEGLGDVEKGDNQNDSWIFALAVLLSSTFVYNSIGTINQQAMDQLYYVTELTHRIRSKSSPDENENEVEDSADFVSFFPDFVWTLRDFSLDLEADGQPLTPAEYLTYSLKLKKGTSQKDETFNLPRLCIRKFFPKKKCFVFDRPVHRRKLAQLEKLQDEELDPEFVQQVADFCSYIFSNSKTKTLSGGIQVNGPRLESLVLTYVNAISSGDLPCMENAVLALAQIENSAAVQKAIAHYEQQMGQKVQLPTETLQELLDLHRDSEREAIEVFIRSSFKDVDHLFQKELAAQLEKKRDDFCKQNQEASSDRCSALLQVIFSPLEEEVKAGIYSKPGGYRLFVQKLQDLKKKYYEEPRKGIQAEEILQTYLKSKESMTDAILQTDQTLTEKEKEIEVERVKAESAQASAKMLQEMQRKNEQMMEQKERSYQEHLKQLTEKMENDRVQLLKEQERTLALKLQEQEQLLKEGFQKESRIMKNEIQDLQTKMRRRKACTIS
modifications: farnesyl moiety at the C-terminal CaaX box motif
notes: GBP1, human, full-length construct with D199A in helix α4; also called pivot point mutant
Consider B2, for which, in series [4], the binding result is reported as “binds”.

B3: GBP1 D199K, non-farnesylated (natural protein, human, UniProt P32455 1-592, looked up)
chain: B2 chain with A199K
notes: GBP1, human, full-length construct with D199K in helix α4; also called pivot point mutant; source: E. coli, pQE-80L, purified (Ni Sepharose HP, Superdex 200)
For B3, the binding result in series [5] is recorded as “binds”.

B4: GBP1 D199A, non-farnesylated (natural protein, human, UniProt P32455 1-592, looked up)
chain: B2 chain
notes: GBP1, human, full-length construct with D199A in helix α4; also called pivot point mutant; source: E. coli, pQE-80L, purified (Ni Sepharose HP, Superdex 200)
As to B4, in series [5], the binding result is “binds”.

B5: GBP1 D199K, farnesylated (natural protein, human, UniProt P32455 1-592, looked up)
chain: B2 chain with A199K
modifications: farnesyl moiety at the C-terminal CaaX box motif
notes: GBP1, human, full-length construct with D199K in helix α4; also called pivot point mutant
For the molecule B5, the binding result in series [4] is on record as “binds”.

B6: isolated LG domain of GBP1 Δ207-223 (domain or fragment, human, UniProt P32455 1-317, looked up)
chain: MASEIHMTGPMCLIENTNGRLMANPEALKILSAITQPMVVVAIVGLYRTGKSYLMNKLAGKKKGFSLGSTVQSHTKGIWMWCVPHPKKPGHILVLLDTEGLGDVEKGDNQNDSWIFALAVLLSSTFVYNSIGTINQQAMDQLYYVTELTHRIRSKSSPDENENEVEDSADFVSFFPDFVWTLRDFSLDLEADGQPLTPDEYLTYSLGGGSLCIRKFFPKKKCFVFDRPVHRRKLAQLEKLQDEELDPEFVQQVADFCSYIFSNSKTKTLSGGIQVNGPRLESLVLTYVNAISSGDLPCMENAVL
notes: as for B1
In the case of B6, in series [3], the “stoichiometry N” value is 2.

B7: GBP1 Δ207-216, non-farnesylated (natural protein, human, UniProt P32455 1-592, looked up)
chain: MASEIHMTGPMCLIENTNGRLMANPEALKILSAITQPMVVVAIVGLYRTGKSYLMNKLAGKKKGFSLGSTVQSHTKGIWMWCVPHPKKPGHILVLLDTEGLGDVEKGDNQNDSWIFALAVLLSSTFVYNSIGTINQQAMDQLYYVTELTHRIRSKSSPDENENEVEDSADFVSFFPDFVWTLRDFSLDLEADGQPLTPDEYLTYSLGGGSETFNLPRLCIRKFFPKKKCFVFDRPVHRRKLAQLEKLQDEELDPEFVQQVADFCSYIFSNSKTKTLSGGIQVNGPRLESLVLTYVNAISSGDLPCMENAVLALAQIENSAAVQKAIAHYEQQMGQKVQLPTETLQELLDLHRDSEREAIEVFIRSSFKDVDHLFQKELAAQLEKKRDDFCKQNQEASSDRCSALLQVIFSPLEEEVKAGIYSKPGGYRLFVQKLQDLKKKYYEEPRKGIQAEEILQTYLKSKESMTDAILQTDQTLTEKEKEIEVERVKAESAQASAKMLQEMQRKNEQMMEQKERSYQEHLKQLTEKMENDRVQLLKEQERTLALKLQEQEQLLKEGFQKESRIMKNEIQDLQTKMRRRKACTIS
notes: GBP1, human, full-length construct; also called helix α4’ variant; source: E. coli, pQE-80L, purified (Ni Sepharose HP, Superdex 200)
Regarding B7, the “stoichiometry N” value in series [5] worked out at 2. Besides, in series [6], the “fold lower dimerization affinity than wild-type GBP1” value came out at 1.8 fold.

B8: GBP1 Δ207-216, farnesylated (natural protein, human, UniProt P32455 1-592, looked up)
chain: B7 chain
modifications: farnesyl moiety at the C-terminal CaaX box motif
notes: GBP1, human, full-length construct; also called helix α4’ variant
Consider B8, for which the binding result in series [5] is “binds”.

B9: isolated LG domain of GBP1 Δ207-216 (domain or fragment, human, UniProt P32455 1-317, looked up)
chain: MASEIHMTGPMCLIENTNGRLMANPEALKILSAITQPMVVVAIVGLYRTGKSYLMNKLAGKKKGFSLGSTVQSHTKGIWMWCVPHPKKPGHILVLLDTEGLGDVEKGDNQNDSWIFALAVLLSSTFVYNSIGTINQQAMDQLYYVTELTHRIRSKSSPDENENEVEDSADFVSFFPDFVWTLRDFSLDLEADGQPLTPDEYLTYSLGGGSETFNLPRLCIRKFFPKKKCFVFDRPVHRRKLAQLEKLQDEELDPEFVQQVADFCSYIFSNSKTKTLSGGIQVNGPRLESLVLTYVNAISSGDLPCMENAVL
notes: as for B1
As for B9, in series [3], the “stoichiometry N” value was determined as 2.

B10: GBP1 Δ207-213, farnesylated (natural protein, human, UniProt P32455 1-592, looked up)
chain: MASEIHMTGPMCLIENTNGRLMANPEALKILSAITQPMVVVAIVGLYRTGKSYLMNKLAGKKKGFSLGSTVQSHTKGIWMWCVPHPKKPGHILVLLDTEGLGDVEKGDNQNDSWIFALAVLLSSTFVYNSIGTINQQAMDQLYYVTELTHRIRSKSSPDENENEVEDSADFVSFFPDFVWTLRDFSLDLEADGQPLTPDEYLTYSLGGGSGGGSQKDETFNLPRLCIRKFFPKKKCFVFDRPVHRRKLAQLEKLQDEELDPEFVQQVADFCSYIFSNSKTKTLSGGIQVNGPRLESLVLTYVNAISSGDLPCMENAVLALAQIENSAAVQKAIAHYEQQMGQKVQLPTETLQELLDLHRDSEREAIEVFIRSSFKDVDHLFQKELAAQLEKKRDDFCKQNQEASSDRCSALLQVIFSPLEEEVKAGIYSKPGGYRLFVQKLQDLKKKYYEEPRKGIQAEEILQTYLKSKESMTDAILQTDQTLTEKEKEIEVERVKAESAQASAKMLQEMQRKNEQMMEQKERSYQEHLKQLTEKMENDRVQLLKEQERTLALKLQEQEQLLKEGFQKESRIMKNEIQDLQTKMRRRKACTIS
modifications: farnesyl moiety at the C-terminal CaaX box motif
notes: as for B8
Turning to B10, the binding result in series [5] was “binds”.

B11: GBP1 Δ207-213, non-farnesylated (natural protein, human, UniProt P32455 1-592, looked up)
chain: B10 chain
notes: as for B7
For B11, the “stoichiometry N” value in series [5] was 2. Besides, in series [6], the “fold lower dimerization affinity than wild-type GBP1” value stood at 3 fold.

For orientation: stoichiometry N means the number of molecules, sites or subunits per partner or assembly.
